Results published in US20220177594A1.

Experiments:
[1] = target: Canine_OSMR_hlgG1_Fc (canine); assay: SPR Biacore, OSMR on chip
[2] = target: Feline_OSMR_hlgG1_Fc (feline); assay: SPR Biacore, OSMR on chip
[3] = target: Feline_OSMR_hlgG1_Fc (feline); assay: SPR Biacore
[4] = target: Canine_OSMR_hlgG1_Fc (canine); assay: SPR Biacore
[5] = target: Feline_OSMR_hlgG1_Fc (feline); assay: indirect ELISA, fOSMR coated; OD ratio to antibody expression control

Chain of Feline_OSMR_hlgG1_Fc (feline) (chain, as listed by the source limits assumed, form in doubt): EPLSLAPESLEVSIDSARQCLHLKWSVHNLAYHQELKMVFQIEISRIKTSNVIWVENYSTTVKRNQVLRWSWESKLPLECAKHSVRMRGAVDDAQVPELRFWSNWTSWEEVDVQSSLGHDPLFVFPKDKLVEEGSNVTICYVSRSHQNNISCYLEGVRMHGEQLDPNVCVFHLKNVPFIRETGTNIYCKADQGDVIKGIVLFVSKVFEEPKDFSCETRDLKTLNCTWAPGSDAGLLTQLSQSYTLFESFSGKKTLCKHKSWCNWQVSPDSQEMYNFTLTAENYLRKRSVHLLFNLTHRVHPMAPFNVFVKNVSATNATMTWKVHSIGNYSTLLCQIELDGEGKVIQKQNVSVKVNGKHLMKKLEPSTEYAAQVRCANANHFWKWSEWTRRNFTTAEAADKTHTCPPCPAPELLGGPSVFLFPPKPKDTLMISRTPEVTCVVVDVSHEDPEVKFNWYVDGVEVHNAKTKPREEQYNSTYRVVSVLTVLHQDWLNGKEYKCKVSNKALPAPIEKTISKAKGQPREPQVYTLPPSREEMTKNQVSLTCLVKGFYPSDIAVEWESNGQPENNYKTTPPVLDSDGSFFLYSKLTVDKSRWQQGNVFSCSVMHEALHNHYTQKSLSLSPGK
Chain of Canine_OSMR_hlgG1_Fc (canine) (chain, as listed by the source limits assumed, form in doubt): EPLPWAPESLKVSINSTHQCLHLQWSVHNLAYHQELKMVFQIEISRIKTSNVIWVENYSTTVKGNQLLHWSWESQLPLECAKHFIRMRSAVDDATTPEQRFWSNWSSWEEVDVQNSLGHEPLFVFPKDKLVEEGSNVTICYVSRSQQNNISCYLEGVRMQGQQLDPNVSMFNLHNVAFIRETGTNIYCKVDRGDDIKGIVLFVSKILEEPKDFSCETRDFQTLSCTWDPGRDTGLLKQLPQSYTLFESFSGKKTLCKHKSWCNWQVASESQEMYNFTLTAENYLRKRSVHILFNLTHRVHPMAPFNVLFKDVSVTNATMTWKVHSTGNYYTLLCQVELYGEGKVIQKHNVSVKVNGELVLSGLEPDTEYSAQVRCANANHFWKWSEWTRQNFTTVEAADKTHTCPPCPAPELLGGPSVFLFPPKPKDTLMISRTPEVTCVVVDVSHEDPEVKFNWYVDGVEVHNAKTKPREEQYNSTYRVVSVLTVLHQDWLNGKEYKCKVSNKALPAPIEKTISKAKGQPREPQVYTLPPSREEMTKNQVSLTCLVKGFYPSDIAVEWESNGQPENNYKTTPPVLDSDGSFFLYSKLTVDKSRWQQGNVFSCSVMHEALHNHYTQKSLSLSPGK

Row | Binder | Kd [1] [nM] | Kd [2] [nM] | Kd [3] [nM] | koff [3] [s⁻¹] | kon [3] [M⁻¹ s⁻¹] | Kd [4] [nM] | koff [4] [s⁻¹] | kon [4] [M⁻¹ s⁻¹] | ELISA ratio [5] [OD ratio]
1 | Mu_14C04 (antibody, V domains shown) VH: EVQLQESGAELVKPGASVKISCKASGYAFSNYWMNWMKQRPGKGLEWIGQIYPGHVNTNYNGNFKDKATLTADKSSSTAYMQLSSLTSEDSAVYFCARSADNSGFVLFAYWGQGTLVTVS VL: DIVLTQSPASLAVSLGQRATISCRASKSVSTSGYSYLHWYQQKPGQPPKLLIFLASNLESGVPARFSGSGSGTDFTLNIHPVEEEDAATYYCQHSRELPLTFGAGTKLELK | 14.2 |  |  |  |  |  |  |  | 
2 | Mu_02D09 (antibody, V domains shown) VH: EVQLVESGGGLVKPGGSLTLSCAASGFTFSDYGMHWLRQAPEKGLEWVAYISSGSRAVFFADTVKGRFTISRDNAKNTLFLQMTSLRSDDTAMYYCARDRYDGRGFAYWGQGTLVTVSA VL: DIVLTQSPATLSVTPGDSVSLSCRASQSISNNLHWYQQTSHESPRLLITYASQSISGIPSRFSGSGSGTDFTLSINSVETEDFGMYFCQQSNSWPLTFGAGTKLELK |  | 8.96 |  |  |  |  |  |  | 
3 | Mu_02D09_VH (SEQ ID NO: 31)_Y32A (antibody, V domains shown) VH: EVQLVESGGGLVKPGGSLTLSCAASGFTFSDAGMHWLRQAPEKGLEWVAYISSGSRAVFFADTVKGRFTISRDNAKNTLFLQMTSLRSDDTAMYYCARDRYDGRGFAYWGQGTLVTVSA VL: DIVLTQSPATLSVTPGDSVSLSCRASQSISNNLHWYQQTSHESPRLLITYASQSISGIPSRFSGSGSGTDFTLSINSVETEDFGMYFCQQSNSWPLTFGAGTKLELKR |  |  | 6.39 | 0.000765 | 120000 | 34.8 | 0.0246 | 707000 | 0.991
4 | Mu_02D09_VH (SEQ ID NO: 31)_D31A (antibody, V domains shown) VH: EVQLVESGGGLVKPGGSLTLSCAASGFTFSAYGMHWLRQAPEKGLEWVAYISSGSRAVFFADTVKGRFTISRDNAKNTLFLQMTSLRSDDTAMYYCARDRYDGRGFAYWGQGTLVTVSA VL: DIVLTQSPATLSVTPGDSVSLSCRASQSISNNLHWYQQTSHESPRLLITYASQSISGIPSRFSGSGSGTDFTLSINSVETEDFGMYFCQQSNSWPLTFGAGTKLELKR |  |  | 0.767 | 0.000872 | 1.14e+06 | 3.92 | 0.00356 | 908000 | 0.159
5 | Mu_02D09_VL (SEQ ID NO: 33)_S56A (antibody, V domains shown) VH: EVQLVESGGGLVKPGGSLTLSCAASGFTFSDYGMHWLRQAPEKGLEWVAYISSGSRAVFFADTVKGRFTISRDNAKNTLFLQMTSLRSDDTAMYYCARDRYDGRGFAYWGQGTLVTVSA VL: DIVLTQSPATLSVTPGDSVSLSCRASQSISNNLHWYQQTSHESPRLLITYASQSIAGIPSRFSGSGSGTDFTLSINSVETEDFGMYFCQQSNSWPLTFGAGTKLELKR |  |  | 9.3 | 0.00107 | 116000 | 159 | 0.00653 | 41200 | 0
6 | Mu_02D09_VL (SEQ ID NO: 33)_Q27A (antibody, V domains shown) VH: EVQLVESGGGLVKPGGSLTLSCAASGFTFSDYGMHWLRQAPEKGLEWVAYISSGSRAVFFADTVKGRFTISRDNAKNTLFLQMTSLRSDDTAMYYCARDRYDGRGFAYWGQGTLVTVSA VL: DIVLTQSPATLSVTPGDSVSLSCRASASISNNLHWYQQTSHESPRLLITYASQSISGIPSRFSGSGSGTDFTLSINSVETEDFGMYFCQQSNSWPLTFGAGTKLELKR |  |  | 7.57 | 0.00109 | 144000 | 35 | 0.00441 | 126000 | 0.025
7 | Mu_10F07_VH (SEQ ID NO: 39)_D99A (antibody, V domains shown) VH: DVKLVESGEGLVKPGGSLKLSCAASGFTFSSYAMSWVRQTPEKRLEWVTYISSGGDYFYYADTVKGRFTISRDNARNTLYLQMSSLKSEDTAMYYCTRAPITGTFAYWGQGTLVTVSA VL: DIQMTQTTSSLSASLGDRVTISCRASQDITNYLNWYQQKPDGTVKLLIYYTSTLHSGVPSRFSGSGSGTDFSLTISNLEQEDIATYFCQQGHMLPWTFGGGTKLEIKR |  |  | 3.18 | 0.000704 | 221000 | 11.2 | 0.000576 | 51600 | 0.545
8 | Mu_10F07_VL (SEQ ID NO: 41)_W96A (antibody, V domains shown) VH: DVKLVESGEGLVKPGGSLKLSCAASGFTFSSYAMSWVRQTPEKRLEWVTYISSGGDYFYYADTVKGRFTISRDNARNTLYLQMSSLKSEDTAMYYCTRDPITGTFAYWGQGTLVTVSA VL: DIQMTQTTSSLSASLGDRVTISCRASQDITNYLNWYQQKPDGTVKLLIYYTSTLHSGVPSRFSGSGSGTDFSLTISNLEQEDIATYFCQQGHMLPATFGGGTKLEIKR |  |  | 7.03 | 0.00158 | 225000 | 40 | 8.63 | 2.16e+08 | 0.134
9 | Mu_10F07_VL (SEQ ID NO: 41)_T97A (antibody, V domains shown) VH: DVKLVESGEGLVKPGGSLKLSCAASGFTFSSYAMSWVRQTPEKRLEWVTYISSGGDYFYYADTVKGRFTISRDNARNTLYLQMSSLKSEDTAMYYCTRDPITGTFAYWGQGTLVTVSA VL: DIQMTQTTSSLSASLGDRVTISCRASQDITNYLNWYQQKPDGTVKLLIYYTSTLHSGVPSRFSGSGSGTDFSLTISNLEQEDIATYFCQQGHMLPWAFGGGTKLEIKR |  |  | 1.63 | 0.000282 | 172000 | 5.32 | 0.000219 | 41200 | 0.298
10 | Mu_10F07_VH (SEQ ID NO: 39)_Y107A (antibody, V domains shown) VH: DVKLVESGEGLVKPGGSLKLSCAASGFTFSSYAMSWVRQTPEKRLEWVTYISSGGDYFYYADTVKGRFTISRDNARNTLYLQMSSLKSEDTAMYYCTRDPITGTFAAWGQGTLVTVSA VL: DIQMTQTTSSLSASLGDRVTISCRASQDITNYLNWYQQKPDGTVKLLIYYTSTLHSGVPSRFSGSGSGTDFSLTISNLEQEDIATYFCQQGHMLPWTFGGGTKLEIKR |  |  | 1.43 | 0.000247 | 173000 | 1.69 | 6.76e-05 | 40100 | 0.375
11 | Mu_10F07_VL (SEQ ID NO: 41)_T53A (antibody, V domains shown) VH: DVKLVESGEGLVKPGGSLKLSCAASGFTFSSYAMSWVRQTPEKRLEWVTYISSGGDYFYYADTVKGRFTISRDNARNTLYLQMSSLKSEDTAMYYCTRDPITGTFAYWGQGTLVTVSA VL: DIQMTQTTSSLSASLGDRVTISCRASQDITNYLNWYQQKPDGTVKLLIYYTSALHSGVPSRFSGSGSGTDFSLTISNLEQEDIATYFCQQGHMLPWTFGGGTKLEIKR |  |  | 1.83 | 0.000468 | 255000 | 3.94 | 0.000256 | 65000 | 0.217
12 | Mu_10F07_VL (SEQ ID NO: 41)_L33A (antibody, V domains shown) VH: DVKLVESGEGLVKPGGSLKLSCAASGFTFSSYAMSWVRQTPEKRLEWVTYISSGGDYFYYADTVKGRFTISRDNARNTLYLQMSSLKSEDTAMYYCTRDPITGTFAYWGQGTLVTVSA VL: DIQMTQTTSSLSASLGDRVTISCRASQDITNYANWYQQKPDGTVKLLIYYTSTLHSGVPSRFSGSGSGTDFSLTISNLEQEDIATYFCQQGHMLPWTFGGGTKLEIKR |  |  | 1.53 | 0.000274 | 179000 | 5.48 | 0.000222 | 40500 | 0.15
13 | Mu_19F07_VH (SEQ ID NO: 47)_F104A (antibody, V domains shown) VH: EVKLVESEGGLVQPGSSMKLSCTASGFTFSDYYMAWVRQVPEKGLEWVANINYDGSSTYYLDSLKSRFIISRDNAKNILYLQMSSLKSEDTATYYCARGLTWDADVWGTGTTVTVSS VL: DIVMTQSHKFMSPSVGDRVSITCKASQDVDTAVAWYQQKPGQSPKLLIYLASTRHTGVPDRFTGSGSGTDFTLTISNVQSEDLADYFCQQYSRFPLTFGAGTKLELKR |  |  |  |  | 144000 |  |  |  | 0.982
14 | Mu_19F07_VL (SEQ ID NO: 49)_Q90A (antibody, V domains shown) VH: EVKLVESEGGLVQPGSSMKLSCTASGFTFSDYYMAWVRQVPEKGLEWVANINYDGSSTYYLDSLKSRFIISRDNAKNILYLQMSSLKSEDTATYYCARGLTWDFDVWGTGTTVTVSS VL: DIVMTQSHKFMSPSVGDRVSITCKASQDVDTAVAWYQQKPGQSPKLLIYLASTRHTGVPDRFTGSGSGTDFTLTISNVQSEDLADYFCQAYSRFPLTFGAGTKLELKR |  |  | 0.00048 | 1.31e-07 | 273000 |  |  |  | 1.08
15 | Mu_19F07_VL (SEQ ID NO: 49)_T53A (antibody, V domains shown) VH: EVKLVESEGGLVQPGSSMKLSCTASGFTFSDYYMAWVRQVPEKGLEWVANINYDGSSTYYLDSLKSRFIISRDNAKNILYLQMSSLKSEDTATYYCARGLTWDFDVWGTGTTVTVSS VL: DIVMTQSHKFMSPSVGDRVSITCKASQDVDTAVAWYQQKPGQSPKLLIYLASARHTGVPDRFTGSGSGTDFTLTISNVQSEDLADYFCQQYSRFPLTFGAGTKLELKR |  |  | 0.00536 | 9.05e-07 | 169000 |  |  |  | 0.821
16 | Mu_19F07_VL (SEQ ID NO: 49)_F94A (antibody, V domains shown) VH: EVKLVESEGGLVQPGSSMKLSCTASGFTFSDYYMAWVRQVPEKGLEWVANINYDGSSTYYLDSLKSRFIISRDNAKNILYLQMSSLKSEDTATYYCARGLTWDFDVWGTGTTVTVSS VL: DIVMTQSHKFMSPSVGDRVSITCKASQDVDTAVAWYQQKPGQSPKLLIYLASTRHTGVPDRFTGSGSGTDFTLTISNVQSEDLADYFCQQYSRAPLTFGAGTKLELKR |  |  | 0.0052 | 4.7e-07 | 90400 |  |  |  | 1.09
17 | Mu_19F07_VL (SEQ ID NO: 49)_L50A (antibody, V domains shown) VH: EVKLVESEGGLVQPGSSMKLSCTASGFTFSDYYMAWVRQVPEKGLEWVANINYDGSSTYYLDSLKSRFIISRDNAKNILYLQMSSLKSEDTATYYCARGLTWDFDVWGTGTTVTVSS VL: DIVMTQSHKFMSPSVGDRVSITCKASQDVDTAVAWYQQKPGQSPKLLIYAASTRHTGVPDRFTGSGSGTDFTLTISNVQSEDLADYFCQQYSRFPLTFGAGTKLELKR |  |  | 0.0143 | 5.86e-07 | 41100 |  |  |  | 1.11
18 | Mu_19F07_VL (SEQ ID NO: 49)_Q89A (antibody, V domains shown) VH: EVKLVESEGGLVQPGSSMKLSCTASGFTFSDYYMAWVRQVPEKGLEWVANINYDGSSTYYLDSLKSRFIISRDNAKNILYLQMSSLKSEDTATYYCARGLTWDFDVWGTGTTVTVSS VL: DIVMTQSHKFMSPSVGDRVSITCKASQDVDTAVAWYQQKPGQSPKLLIYLASTRHTGVPDRFTGSGSGTDFTLTISNVQSEDLADYFCAQYSRFPLTFGAGTKLELKR |  |  | 0.0511 | 2.38e-06 | 46500 |  |  |  | 0.985
